Test results taken from patent US6355619B1, “Peptide tumor cell growth inhibitors” (Board of Regents, The University of Texas System, priority 1996, dated 2002).
Values joined by “and” are separate entries in the source; they are usually repeats but may differ in a detail not shown here. Equal entries are not always repeated. Where two headings read alike, the source gives them in different places. Values belong to the substance of their own block, whether it stands above or below them.

How the values were obtained:
[1] = tested on: MGSA/GROα receptors on Hs 294T melanoma cells; assay: Binding of 125I-MGSA/GROα to Hs 294T melanoma cells; parameters: species or system human
Protocol: (§1) FIG. 11A. The binding of ^125I-labeled MGSA/GROα to melanoma cell lines, Hs 294T and RPMI-7951. The melanoma cells, 1×10^5, were incubated with 1 nM ^125I-MGSA/GROα in the presence of various concentrations of unlabeled MGSA/GROα. Binding inhibition curve with Hs 294T (closed circles) and RPMI-7951 (open circles). The lines shown in the graph are the best fit curves calculated using the London II computer program.
(§2) FIG. 13. The effect of Antileukinate on the binding of radiolabeled MGSA/GROα to the melanoma cell lines. The melanoma cells, Hs 294T (closed circles) and RPMI-7951 (open circles), were incubated with 1 nM ^125I-MGSA/GROα in the presence of different concentrations of Antileukinate. The lines shown in the graph are the best fit curves calculated using the London II computer program.
(§3) Recombinant human MGSA/GROα and IL-8 were purchased form Pepro Tech Inc. (Rocky Hill, N.J.) and radioactively labeled using ^125I-labeled Bolton-Hunter reagent (DuPont-NEN, Wilmington, Del.) (Bolton and Hunter, 1973). The labeled proteins were isolated using Sephadex G-25 column (Column PD-10, Pharmacia) pre-equilibrated with PBS containing 0.1% gelatin and stored at −70° C. after the addition of 1% bovine serum albumin.
(§4) Binding studies with melanoma cell lines were performed by the method of Horuk and colleagues (Horuk et al., 1993). Briefly, the cells (1×10^5 cells/well) in 24-well plates were washed two times with Hank's Balanced Salt Solution and incubated with ^125I-labeled MGSA/GROα or IL-8 in the buffer containing 1% bovine serum albumin at 4° C. for 3 hr. The incubation was terminated by vacuum aspiration of the supernatant. The cells were washed three times in binding buffer, solubilized by the addition of 200 μl of 1% SDS, and transferred to vials for counting. The non-specific binding was estimated by measuring the binding in the presence of 100-fold excess of non-labeled ligand. The binding parameters were calculated using the Lundon II computer program (Lundon Software Inc., Chagrin Falls, Ohio).

[2] = tested on: MGSA/GROα receptors on RPMI-7951 melanoma cells; assay: Binding of 125I-MGSA/GROα to RPMI-7951 melanoma cells; settings: RPMI-7951
Protocol: as §1, §2, §3, §4

[3] = target: MGSA/GROα receptors on Hs 294T melanoma cells; assay: 1 nM 125I-MGSA/GROα displaced by unlabeled MGSA/GROα on Hs 294T cells, Lundon II
[4] = target: MGSA/GROα receptors on Hs 294T melanoma cells; assay: cell-based or functional assay
[5] = target: MGSA/GROα receptors on RPMI-7951 melanoma cells; assay: 1 nM 125I-MGSA/GROα displaced by unlabeled MGSA/GROα on RPMI-7951 cells, Lundon II
[6] = target: Receptor 2 (Table 3; class of IL-8 receptors on human neutrophils, two-site model, Lundon II) (human); assay: displacement of 1 nM 125I-IL-8 by unlabeled IL-8 on human neutrophils, Lundon II two-site model, IL-8 alone
[7] = target: Receptor 1 (Table 3; class of IL-8 receptors on human neutrophils, two-site model, Lundon II) (human); assay: as above
[8] = target: Receptor 2 (Table 2; class of IL-8 receptors on human neutrophils, two-site model, Lundon I) (human); assay: saturation binding of 125I-IL-8 to human neutrophils, Lundon I, two-site model, in presence of 20 µM Ac-RRWWCR-NH2
[9] = target: Receptor 1 (Table 2; class of IL-8 receptors on human neutrophils, two-site model, Lundon I) (human); assay: as above
[10] = target: IL-8 receptors on human neutrophils (human); assay: saturation binding of 125I-IL-8 to human neutrophils, Lundon I, one-site model, no peptide
[11] = target: Receptor 2 (Table 2; class of IL-8 receptors on human neutrophils, two-site model, Lundon I) (human); assay: saturation binding of 125I-IL-8 to human neutrophils, Lundon I, two-site model, in presence of 10 µM Ac-RRWWCR-NH2
[12] = target: Receptor 1 (Table 2; class of IL-8 receptors on human neutrophils, two-site model, Lundon I) (human); assay: as above
[13] = target: Receptor 2 (Table 2; class of IL-8 receptors on human neutrophils, two-site model, Lundon I) (human); assay: saturation binding of 125I-IL-8 to human neutrophils, Lundon I, two-site model, in presence of 40 µM Ac-RRWWCR-NH2
[14] = target: Receptor 1 (Table 2; class of IL-8 receptors on human neutrophils, two-site model, Lundon I) (human); assay: as above
[15] = target: Receptor 2 (Table 3; class of IL-8 receptors on human neutrophils, two-site model, Lundon II) (human); assay: displacement of 1 nM 125I-IL-8 by unlabeled IL-8 on human neutrophils, Lundon II two-site model, +10 µM Ac-RRWWCR
[16] = target: Receptor 1 (Table 3; class of IL-8 receptors on human neutrophils, two-site model, Lundon II) (human); assay: as above
[17] = target: IL-8 receptors on human neutrophils (human); assay: inhibition of 125I-IL-8 binding to human neutrophils, peptide 10 µM
[18] = target: IL-8 receptors on human neutrophils (human); assay: inhibition of 125I-IL-8 binding to human neutrophils, method of Example I; D-amino acid heptamer series
[19] = target: IL-8 receptors on human neutrophils (human); assay: inhibition of 125I-IL-8 binding to human neutrophils
[20] = target: IL-8 receptors on human neutrophils (human); assay: inhibition of 125I-IL-8 binding to human neutrophils; peptide concentration not given
[21] = tested on: IL-8 receptors on neutrophils; assay: Inhibition of 125I-labeled IL-8 binding to human neutrophils
Protocol: Therefore, in pursuing this aim, the present inventors assayed various other peptide compositions for IL-8 inhibitory activity by screening a library of 400 groups of hexapeptides. In these screening assays, ^125I-labeled interleukin-8 (10^−12 M) was mixed with 100 μM peptide, then added to neutrophils and incubated at 4° C. for 90 min. The bound radioactivity was separated from unbound by centrifugation through a dense cushion of a mixture of paraffin and silicon oils and the ^125I bound to neutrophils was counted in a gamma radiation spectrometer, allowing the results to be expressed as the percent of IL-8 binding which was inhibited.
The use of human subjects for acquisition of neutrophils was approved by the Institutional Review Board for human experimentation. For the preparation of neutrophils, human blood was anticoagulated with heparin for enzyme release studies and with 0.33% sodium citrate for other studies. For chemotactic and enzyme release studies neutrophils were separated by dextran sedimentation and erythrocyte lysis by the method of Boyum (Kohler and Milstein, 1975). For binding studies and cytotoxic studies, the neutrophils were further purified in gradients of Percoll (Pharmacia Fine Chemicals, Piscataway, N.J.) to a purity of 90-93% (Kohler and Milstein, 1975).
Recombinant human IL-8 (72 amino acids; Pepro Tech Inc., Rocky Hill, N.J.) was radioactively labeled with ^125I by the chloramine T method of Hunter and Greenwood (Hunter and Greenwood, 1962). Binding studies were performed according to Besemer et al. (1989), as follows: Neutrophils in phosphate buffered saline pH 7.4 (PBS) containing 0.1% bovine serum albumin (BSA) were incubated with labeled ligand in the presence or absence of the peptide being tested for 90 min at 4° C. to reach equilibrium and then centrifuged at 12,000×g for 3 min in Beckman B microfuge (Beckman Instruments, Fullerton, Calif.), through a cushion consisting of a mixture of paraffin oil Fisher Scientific, Fair Lawn, N.J.) and silicon oil (Serva Co., N.Y., N.Y.). The pellet and supernatant were then counted in a gamma radiation spectrometer. The non-specific binding was estimated to measure the binding in the presence of 100-fold excess of non-labeled ligand. The binding constants were calculated using the computer programs Lundon I and Lundon II.
In these studies, a screening for inhibition was carried out at 100 μM concentration of the peptide being tested, with a 10^−12 M concentration of IL-8. In the first series of studies, twenty peptides were synthesized with the carboxyl-terminal residue of RRWWCX (SEQ ID NO:23) being changed to each of the standard protein amino acids in turn.

[22] = tested on: Hs 294T melanoma cells; assay: Binding of 125I-IL-8 to Hs 294T melanoma cells; parameters: species or system human
Protocol: (§5) FIG. 12. The specificity of the receptor binding. The melanoma cells, Hs 294T (closed symbols) and RPMI-7951 (open symbols), were incubated with indicated concentrations of radiolabeled MGSA/GROα (circles) or IL-8 (triangles). The non-specific binding was estimated by the binding in the presence of 100 fold excess of unlabeled material. Specific binding which is calculated by subtracting non-specific binding from total binding is shown in this figure.
as §4

[23] = tested on: RPMI-7951 melanoma cells; assay: Binding of 125I-IL-8 to RPMI-7951 melanoma cells
Protocol: as §5, §4

[24] = target: IL-8 receptors on human neutrophils (human); assay: inhibition of IL-8 binding to human neutrophils
[25] = target: IL-8 receptors on human neutrophils (human); assay: inhibition of 125I-IL-8 (10^-12 M) binding to human neutrophils, peptide 100 µM
[26] = target: IL-8 receptors on human neutrophils (human); assay: inhibition of 1 nM 125I-IL-8 binding to human neutrophils, 90 min 4 °C, average of replicates
[27] = target: MGSA/GROα receptors on RPMI-7951 melanoma cells; assay: inhibition of 1 nM 125I-MGSA/GROα binding to RPMI-7951 cells
[28] = target: IL-8 receptors on human neutrophils (human); assay: inhibition of 125I-IL-8 binding to human neutrophils, assuming purely competitive single site model
[29] = target: IL-8 receptors on human neutrophils (human); assay: inhibition of binding of 1 nM IL-8 to human neutrophils, 90 min on ice (FIG. 10)
[30] = target: IL-8 receptors on human neutrophils (human); assay: cell-based or functional assay
[31] = target: MGSA/GROα receptors on RPMI-7951 melanoma cells; assay: cell-based or functional assay
[32] = target: IL-8 receptors on human neutrophils (human); assay: inhibition of 125I-IL-8 binding to human neutrophils, method of Example I; reference row of the heptamer table
[33] = target: MGSA/GROα receptors on Hs 294T melanoma cells; assay: inhibition of 1 nM 125I-MGSA/GROα binding to Hs 294T cells
[34] = IL-8 alone, binding inhibition curves, Lundon II

Recombinant human IL-8 (72 amino acids), sequence (P10145 28-99 limits assumed): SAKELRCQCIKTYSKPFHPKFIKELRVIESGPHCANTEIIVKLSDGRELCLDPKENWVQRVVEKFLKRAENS
Recombinant human MGSA/GROα, sequence (P09341 35-107): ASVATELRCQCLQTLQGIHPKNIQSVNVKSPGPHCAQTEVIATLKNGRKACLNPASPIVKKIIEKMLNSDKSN

- Kd [3]: 6 nM
- maximal binding (Bmax) (fmole/10^5 cells) [3]: 11
- reversal of the inhibition of Hs 294T growth by 50 µM Antileukinate [4]: 50 nM
- Kd [5]: 3 nM
- maximal binding (Bmax) (fmole/10^5 cells) [5]: 15
Substance: Recombinant human MGSA/GROα (from UniProt P09341 35-107) (ligand)

- Bmax (fmole/10^6 cells) [6]: 68.8
- Kd [6]: 0.67 nM
- Bmax (fmole/10^6 cells) [7]: 38.8
- Kd [7]: 0.03 nM
- Bmax (fmole/10^6 cells) [8]: 76.2
- Kd [8]: 0.8 nM
- Bmax (fmole/10^6 cells) [9]: 90.9
- Kd [9]: 42.8 nM
- Bmax (fmole/10^6 cells) [10]: 174
- Kd [10]: 1.3 nM
- Bmax (fmole/10^6 cells) [11]: 90.9
- Bmax (fmole/10^6 cells) [12]: 91.9
- Kd [12]: 68 nM
- Bmax (fmole/10^6 cells) [13]: 44.2
- Kd [13]: 1.3 nM
- Bmax (fmole/10^6 cells) [14]: 82
- Kd [14]: 13 nM
- Bmax (fmole/10^6 cells) [15]: 75.6
- Kd [15]: 0.76 nM
- Bmax (fmole/10^6 cells) [16]: 11.2
- Kd [16]: 1.23 nM
Substance: Recombinant human IL-8 (72 amino acids) (from UniProt P10145 28-99) (ligand)

The remaining lines, values behind:

Substance: MGSA/GROα: Recombinant human MGSA/GROα (Pepro Tech Inc.), 73 amino acid α-chemokine
- Kd [1]: ~6 nM
- maximal binding (Bmax) of MGSA/GROα [1]: 11 fmole/10^5 cells
- Kd [2]: ~3 nM
- maximal binding (Bmax) of MGSA/GROα [2]: 15 fmole/10^5 cells

Substance: Ac-rrwwcrc-NH2 (peptide)
- % of IL-8 binding prevented [17]: 80%
- % INHIB. [18]: 108%
- fold potency against Ac-rrwwcr-NH2 (SEQ ID NO:1) [19]: 4 fold

Substance: Ac-KELRCQ-NH2 (peptide)
- % Binding Inhibition [20]: -0.4%

Substance: IL-8: Recombinant human IL-8 (72 amino acids; Pepro Tech Inc.), radiolabeled ligand [reference compound]
- Bmax of IL-8, one-site model ([21]; 0 μM peptide, binding isotherms, Lundon I): 174.2 ± 14.5 fmole/10^6 cells
- Kd ([21]; 0 μM peptide, binding isotherms, Lundon I, read-out: Kd of IL-8, one-site model): 1.3 ± 0.2 nM
- Receptor 1 Bmax of IL-8 [21, 34]: 38.8 ± 0.6 fmole/10^6 cells
- Receptor 2 Bmax of IL-8 [21, 34]: 68.8 ± 0.7 fmole/10^6 cells
- Kd ([21]; IL-8 alone, binding inhibition curves, Lundon II, read-out: Receptor 1 Kd of IL-8): 0.03 nM
- Kd ([21]; IL-8 alone, binding inhibition curves, Lundon II, read-out: Receptor 2 Kd of IL-8): 0.67 ± 0.04 nM
- specific binding of IL-8 to melanoma cells [22]: no specific binding
- specific binding of IL-8 to melanoma cells [23]: no specific binding

Substance: Ac-RRWWCR-NH2 (peptide)
- % inhibition [17]: 20%
- fold effectiveness against the non-acetylated peptide [24]: 2 fold
- % INHIB. [25]: 112%
- EC50 [26]: 13700 nM
- EC50 [27]: 1000 nM
- Ki [28]: 10000 nM
- % Binding Inhibition [20]: 98.6%
- EC50 [29]: 25000 nM
- growth of Hs 294T cells (cell number after 72 hr) [4]: 18 µM and 10 µM
- growth of melanoma cells in culture [4]: 100 µM
- chemotaxis of neutrophils stimulated with 10 nM of IL-8 [30]: 50 µM
- enzyme release from neutrophils stimulated by IL-8 [30]: 0.8 µM
- β-glucuronidase release stimulated by 100 nM of IL-8 [30]: 2 µM
- growth of RPMI-7951 melanoma cells (cell number after 72 hr) [31]: 31 µM
- growth of melanoma cells in culture [31]: 100 µM
- % INHIB. [32]: 112%
- EC50 [33]: 1000 nM
